# Patent US20220213456
# Tested on: T1, OMNI-47 (Peptoniphilus obesi ph1)
# T1 sequence: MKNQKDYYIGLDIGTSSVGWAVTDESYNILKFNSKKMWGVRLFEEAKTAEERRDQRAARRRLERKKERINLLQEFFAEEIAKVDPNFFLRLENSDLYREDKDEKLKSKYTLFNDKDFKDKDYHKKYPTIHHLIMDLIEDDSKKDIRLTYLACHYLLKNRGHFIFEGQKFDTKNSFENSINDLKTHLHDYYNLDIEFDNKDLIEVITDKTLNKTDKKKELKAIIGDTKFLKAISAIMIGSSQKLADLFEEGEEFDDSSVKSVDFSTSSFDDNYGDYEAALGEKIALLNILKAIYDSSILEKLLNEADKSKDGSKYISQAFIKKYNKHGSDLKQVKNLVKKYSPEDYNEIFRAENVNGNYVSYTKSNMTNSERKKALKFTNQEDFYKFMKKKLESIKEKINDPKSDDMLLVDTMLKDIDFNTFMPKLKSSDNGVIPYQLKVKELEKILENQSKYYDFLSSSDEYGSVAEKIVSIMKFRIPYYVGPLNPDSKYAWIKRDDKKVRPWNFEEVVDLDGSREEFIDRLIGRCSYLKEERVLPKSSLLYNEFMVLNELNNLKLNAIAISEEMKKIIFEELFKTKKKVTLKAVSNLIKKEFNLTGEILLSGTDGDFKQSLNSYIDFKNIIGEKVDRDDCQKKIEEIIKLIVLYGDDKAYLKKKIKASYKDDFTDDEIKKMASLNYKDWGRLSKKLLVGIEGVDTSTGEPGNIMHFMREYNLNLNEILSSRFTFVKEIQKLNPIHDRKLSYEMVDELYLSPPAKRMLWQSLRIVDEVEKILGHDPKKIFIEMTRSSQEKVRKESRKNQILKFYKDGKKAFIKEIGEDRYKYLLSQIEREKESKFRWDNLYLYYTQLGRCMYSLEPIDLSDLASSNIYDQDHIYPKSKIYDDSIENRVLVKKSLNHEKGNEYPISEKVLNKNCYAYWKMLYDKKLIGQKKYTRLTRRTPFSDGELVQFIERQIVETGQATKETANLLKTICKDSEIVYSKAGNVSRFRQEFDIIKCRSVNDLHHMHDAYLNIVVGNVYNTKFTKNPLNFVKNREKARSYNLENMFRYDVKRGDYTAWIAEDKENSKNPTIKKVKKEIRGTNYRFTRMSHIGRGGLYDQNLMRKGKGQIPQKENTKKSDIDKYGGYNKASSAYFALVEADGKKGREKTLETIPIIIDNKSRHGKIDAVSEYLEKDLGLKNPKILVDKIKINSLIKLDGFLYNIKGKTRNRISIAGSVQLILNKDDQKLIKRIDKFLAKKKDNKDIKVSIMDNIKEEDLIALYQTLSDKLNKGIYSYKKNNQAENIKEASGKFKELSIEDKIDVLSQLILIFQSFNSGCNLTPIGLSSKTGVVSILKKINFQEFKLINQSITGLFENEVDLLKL
# Assay: cleavage_in_vitro
# Settings: TXTL; PAM NVYR (specific NRTA); V1, V2 tested
sequence,measurement,value
GGAAGAGCAGAGCCUUGGUCUCGUUUGAGAGUUAUGGAAACAUGAUGAGUUCAAAUAAAAAUUUAUUCAAAUCGCCCAUUAUGGGCCGCAGAUGUUCUGCAUUAUAUGCUUGCAAGUUGCAAGCUUUUUUU / GGAAGAGCAGAGCCTTGGTCTCNNNNNNNN / NNNNNNNNGAGACCAAGGCTCTGCTCTTCC [OMNI-47 T2 sgRNA V1 ; pbPOS T2 protospacer 8N PAM library],activity (1-depletion score),0.98
